The values that follow come from the supplement of paper PMC9170038.

This data set relates to MS2 coat protein. The experiment in a line: apparent KD of MS2 coat protein; higher = weaker reporter binding. As to conditions: Eterna round: R107. In short, it runs like this:
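For every design, apparent KD is the median of normalised binding-curve fits from its clusters. The RNA switches were transcribed on-chip from Illumina sequencing clusters and titrated with SNAP-549-labelled MS2 coat protein (twofold steps, 0.7 or 1.5 nM to 3 µM; 0.8–1.5 h to 10–20 min per step). Titrations used 100 mM Tris-HCl pH 7.5, 80 mM KCl, 4 mM MgCl2, without or with constant ligand.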

[1] abbreviates: input ligand: theophylline 20 uM.
Where [2] appears, read: input ligand: theophylline 2 mM.
Where [3] appears, read: input ligand: tryptophan 2.4 mM.

Regarding “GUUUUCAAGUCGGCCGCCACUGAUACAAUCCUCACCGGUUCACAUGAGGAUCACCCAUGUUCGCUCAGGACCGGGACCUUCUGUG [theeternabot_exclusion_MS2_Trp_B_3]”, the “apparent KD of MS2 coat protein” value by setting is: (input ligand: arginine 13.2 mM) 77.4 nM; under setting [1], 141 nM; under setting [2], 142 nM.
Take “CGGCUCAUAAUGGAUACCAGUCCAGCAUAGAAACCUUGACACAUGAGGAUCACCCAUGUUGACCCUUGGCAGCCAUUGAUCAUAC [theeternabot_exclusion_MS2_Theo_B_28]”: the “apparent KD of MS2 coat protein” value reads like this: (input ligand: arginine 13.2 mM) 23.1 nM; under setting [1], 36.5 nM; under setting [3], 21.7 nM.
On to “UAUAUAGAAGGAAGUCAUAUAGAUGCAGAAGGAGCGUAGGAAACUACAGGUAGGUCGCUGAGGUACAUGAGGAUCACCCAUGUAG [SSArg A #15 Slice of Pi]”, for which the “apparent KD of MS2 coat protein” value (input ligand: arginine 13.2 mM) came out at 24.7 nM; the “apparent KD of MS2 coat protein” value (input ligand: none) was 32.3 nM; the “apparent KD of MS2 coat protein” value under setting [1] amounted to 44.7 nM; the “apparent KD of MS2 coat protein” value under setting [2] is 24.9 nM; the “apparent KD of MS2 coat protein” value under setting [3] was found to be 29.4 nM.
Take “AACGGUCGUACCGGAAUGAUCCUCAUGUAACGAGGACCGGUACGGCCGCCACUCGAUAACAUGAGGAUCACCCAUGUAAUAAUAA [|T'-M'-Trp-Ms2|_Design11]”: the “apparent KD of MS2 coat protein” value worked out at 18.8 nM (input ligand: arginine 13.2 mM), 17 nM under setting [1] and 17.2 nM under setting [2].
For “GGCACAUGUGGAAGGAGCGUCGUACGAGCUACAUGAGGAUCACCCAUGUCGGUUAGUGUCCGACAGGUAGGUCGCCACAUUUAAC [Isiser]”, the “apparent KD of MS2 coat protein” value worked out at 114 nM (input ligand: arginine 13.2 mM); 374 nM (input ligand: none); 235 nM under setting [1]; 551 nM under setting [2]; 195 nM under setting [3].
The matching figures for “AUACAUGAGGAUCACCCAUGUUAUAGUGAAGGAGCGACGUUUAUGUCAGGUAGGUCGCACUGUUGUUUAAUGAUUCUUGGAUCUU [#21 Exclusion - Arginine A]”: 15.3 nM, 13.2 nM, 22.5 nM, 13.5 nM and 16.4 nM.
For the sequence “CCGGGCUGUGGAGACAUAGCCCGGACUGAAGGAGCGGGAAUAAACCCAGGUAGGUCGCAGAGAUCCACAUGAGGAUCACCCAUGU [!0.S]”, the “apparent KD of MS2 coat protein” value came out at 34.4 nM (input ligand: arginine 13.2 mM); 34 nM (input ligand: none); 40.9 nM under setting [1]; 46.8 nM under setting [2]; 36.7 nM under setting [3].
The matching figures for “ACACAUGACGCGGCCGCCACUGCAACAUGAGGAUCACCCAUGUCACCCAUGUAUGACAUGAGGAUCAGGACCGGGCGUGUGUGGA [Same State Tryptophan B 3]”: 615 nM, 566 nM, 491 nM, 580 nM and 195 nM.
On to “AGUACUCGAACGGAUACCAGCCGGACAUGAGGAUCACCCAUGUCCUACCUAUGUUCGGUUGGCCCUUGGCAGCCGUUCGUGUACA [Omei Theo B SS A v6]”, for which the “apparent KD of MS2 coat protein” value was determined as 171 nM (input ligand: arginine 13.2 mM), 707 nM under setting [1] and 430 nM under setting [3].
Regarding “UAUCCACAUGAGGAUCACCCAUGUUAGGAAGGAGCGGUGAAUGAACCAGGUAGGUCGCCUAGGUGAGGACCAUCUAUGGAUUCGU [Exclusion - Arginine A (Freestyle 12)]”, the “apparent KD of MS2 coat protein” value reads like this: (input ligand: arginine 13.2 mM) 12.8 nM; (input ligand: none) 13.3 nM; under setting [1], 19.8 nM; under setting [2], 14.6 nM; under setting [3], 13.1 nM.
The matching figures for “CCCAAAUAGAUAUUUGGGAUUUUACUCGAAGGAGCGUCAUAGUAGGCAGGUAGGUCGCGAGACAUGAGGAUCACCCAUGUAGAGA [ss-argA-N]”: 34.1 nM, 41.1 nM, 45.9 nM, 45.1 nM and 40.9 nM.
On the same counts, the results for “GCGAUGGAGCGAAGGAGCGGCUAAAUGUAACACAUGAGGAUCACCCAUGUUCCAAGAUGUGGCCAGGUAGGUCGCGCUCCAUCGC [SSAB NP+V+V2 #15]” are 61.8 nM, 175 nM, 229 nM, 185 nM and 144 nM.
On to “CUGCCAUGCAGAGAUACCAGUGCGCUCAGCACAUGAGGAUCACCCAUGUCGGCUGCCGAUCACCCUUGGCAGCUCUGCAUGGCAG [?@#$_]”, for which the “apparent KD of MS2 coat protein” value reads like this: (input ligand: arginine 13.2 mM) 12 nM; under setting [1], 13 nM; under setting [3], 11.3 nM.
Turning to “UGUAUGGACUGAAGGAGCGGAUGAUAUCAUGAGGAUCACCCAUGGAAUAAGGCGAAAGCCAUCCAGGUAGGUCGCAGUCCAUACU”, the “apparent KD of MS2 coat protein” value is, setting by setting: (input ligand: arginine 13.2 mM) 45.6 nM; (input ligand: none) 72.7 nM; under setting [1], 131 nM; under setting [2], 128 nM; under setting [3], 82.4 nM.
Take “GCGGACAUGAGGAUCACCCAUGUAAAUCCUCGAGGACCGGUACGGCCGCCACUCGAACGAGUGGCACGCGAGUGCGCACUCGCGU [aDa]”: the “apparent KD of MS2 coat protein” value runs as follows: (input ligand: arginine 13.2 mM) 21.8 nM; under setting [1], 38.4 nM; under setting [2], 29.7 nM.
With “UGACAUUGCUGCGAUACCAGACAUGAGGAUCACCCAUGUACCAAGGUAAGAAAAUAACAUGUCCCUUGGCAGCGCAGCAAUGUCU [MAT - Exclusion Theophlline B - Mod of Eli - D1]”, the “apparent KD of MS2 coat protein” value by setting is: (input ligand: arginine 13.2 mM) 18.9 nM; under setting [1], 40.2 nM; under setting [3], 14.4 nM.
The matching figures for “CUAUAAGUAACUGAUACCAGUGUACUGACAUGAGGAUCACCCAUGUUGGGUUUUGUUGUACACCCUUGGCAGCAGAAUCUUGUAG [AstrosExyTheB#15]”: 46.5 nM, 62.3 nM and 54 nM.
